Laboratory results as given in patent US11433139B2, “Peptide vaccines against interleukin-31” (Zoetis Services LLC, priority 2018, dated 2022).
Entries after “also recorded” stand apart in the source; their conditions may differ. Where no end group is shown, it is not given here. The star is where a group is joined. Biotin = O=C1N[C@H]2[C@H](CS[C@H]2CCCCC(=O)*)N1

How the values were obtained:
[1] = test system: mouse anti equine IL-31 serum; assay: Bio-layer interferometry binding of mouse serum to immobilized equine IL-31 mimotopes
Excerpt: Mice were immunized with full length equine IL-31 (SEQ ID NO: 165; Equine_IL-31), the corresponding nucleotide sequence for which is (SEQ ID NO: 166; […]) conjugated to CRM-197 like the method described in section 1.6 of this application. Biotin conjugated peptides representing three epitope regions described herein were designed for use with a bio-layer interferometry binding assay (Octet, ForteBio). Description of these peptides are described in FIG. 21A. Each peptide contains an N terminal biotin with a three-amino acid spacer sequence (GSG) annotated with bold underlined text in the figure. The 15H05 mimotope includes two terminal cysteine residues (also highlighted in bold and underlined) to facilitate cyclization by a disulphide bond. […] Control mouse serum was from a mouse vaccinated with an unrelated protein. The response, described here as the amplitude of the signal following 120 seconds of antiserum association, is represented on the y axis of the figure. […] In addition, the ability of these IL-31 mimotopes to be recognized by those immune responses can be assessed through binding. […] Like presentation of mimotopes described herein which elicit immune responses to full length protein, this experiment describes a reciprocal validation of these epitopes where the immune response is validated from the protein against the mimotope.

[2] = test system: feline 11E12 mutant IL-31; assay: Biacore binding, single test concentration of antibody, feline 11E12 mutant IL-31 surface
Sequence of feline 11E12 mutant IL-31 (as listed by the source, stated change not applied): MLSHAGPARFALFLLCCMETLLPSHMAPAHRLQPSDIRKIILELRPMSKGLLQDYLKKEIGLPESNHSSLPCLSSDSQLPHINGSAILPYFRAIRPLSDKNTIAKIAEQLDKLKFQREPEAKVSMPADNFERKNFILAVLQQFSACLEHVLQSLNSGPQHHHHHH
Experimental: (§1) For the indirect ELISA, binding (ELISA OD) to wildtype feline IL-31 and a feline IL-31 15H05 mutant which had mutations in the monoclonal antibody 15H05 epitope region was assessed. To confirm binding, biacore analysis was performed using canine, feline, equine, human, the feline 15H05 mutant, and feline 11E12 mutant IL-31 proteins as surfaces and a single test concentration of antibody. The feline IL-31 11E12 mutant had mutations in the monoclonal antibody 11E12 epitope region.
(§2) For the indirect ELISA method, antibody binding to wildtype and feline IL-31 15H05 mutant proteins was assessed. […] In comparison, the 11E12 antibody bound to the wild-type feline IL-31 and its binding was not impacted by the mutations in the 15H05 epitope region as evidenced by the data in FIG. 4. To confirm binding, biacore analysis was performed using canine, feline, equine, human, feline 15H05 mutant, and feline 11E12 mutant IL-31 proteins as surfaces and a single test concentration of antibody. Similar to ELISA observations, all antibodies tested bound to wildtype feline IL-31. In agreement with the data described above in this section, mouse antibodies 11 E12 and 15H05 both bound to canine and feline IL-31 surfaces. […] From this group of nine fully canine antibodies, only ZIL1 and ZIL9 cross-reacted with equine IL-31. Of note, antibody 15H05 was the only one of all assayed herein that bound to canine, feline, and equine IL-31 indicating some level of epitope conservation across the three species. In contrast, none of the antibodies described herein bound to human IL-31. Additional biacore surfaces were used to verify ELISA observations showing differential binding of antibodies to wildtype feline IL-31 and two proteins with mutations in the 15H05 (15H05 mutant) or 11 E12 (11E12 mutant) epitopes. […] Differing results can be attributed to differences in the two assay methodologies.

[3] = test system: canine IL-31; assay: Competition binding assessment using Biacore, canine IL-31 surface; settings: sequential addition of 15H05 and 11E12, Biacore
Sequence of canine IL-31 (as listed by the source): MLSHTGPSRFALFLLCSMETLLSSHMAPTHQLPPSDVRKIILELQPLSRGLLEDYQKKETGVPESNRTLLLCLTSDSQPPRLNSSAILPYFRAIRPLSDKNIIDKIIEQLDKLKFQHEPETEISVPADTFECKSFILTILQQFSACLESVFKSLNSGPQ
Experimental: (§3) To further characterize the IL-31 epitopes bound by mAbs 15H05 and 11 E12, blocking experiments were performed using biacore where the surface containing the IL-31 protein was generated followed by sequential addition of antibodies. FIGS. 7A and 7B show the relative binding of each antibody to IL-31 following capture of 11E12 or 15H05. The columns labeled HBS-EP (assay buffer) indicate the maximum signal obtained from each antibody binding to the IL-31 surface alone without competition. […] The sensograms related to FIG. 7A show the disassociation kinetics of both antibodies are very slow on this newly formed biacore surface therefore no additional occupation of binding sites can occur with addition of the same antibody (data not shown).

[4] = test system: feline IL-31; assay: Competition binding assessment using Biacore, feline IL-31 surface; settings: sequential addition of 15H05 and 11E12, Biacore
Experimental: as §3
Target sequence in this assay (as listed by the source): as the sequence (as listed by the source, stated change not applied) above, with A104D, A107I counted along it
Binding of additional antibody in the presence of the same antibody is a result of the increased off rate due to the poorer quality of the surface used. Increased off rates can be seen and compared to the KD values from newly formed feline IL-31 surfaces in FIG. 2.

[5] = test system: feline IL-31 15H05 mutant; assay: Indirect ELISA, binding to feline IL-31 15H05 mutant; settings: compared with wildtype
Sequence of feline IL-31 15H05 mutant (as listed by the source, change not shown): as the sequence (as listed by the source, stated change not applied) above, with A104D, A107I, P126A, D128A counted along it
Experimental: (§4) Mice and dogs were immunized with recombinant canine IL-31 (SEQ ID No. 155) for the purpose of identifying antibodies. Serum antibody titers from immunized animals were determined using an enzyme linked immunosorbent assay (ELISA). Canine or feline IL-31 (50 ng/well) was immobilized to polystyrene microplates and used as a capture antigen. Serum from immunized animals was diluted in phosphate buffered saline with 0.05% tween-20 (PBST). The presence of anti-IL-31 antibodies was detected with an appropriate secondary HRP labeled antibody. Following addition of a chromogenic substrate (SureBlue Reserve TMB 1-Component Microwell Peroxidase Substrate, KPL, Inc., Gaithersburg, Md.) and a ten minute incubation at room temperature (RT) the reaction was stopped with the addition of […] of 0.1 N HCl. The absorbance of each well was determined at an optical density (OD) of 450 nm. Antibodies were selected for their ability to bind canine and feline IL-31 using an ELISA. In some cases, further characterization was performed at the time of selection using an ELISA with a mutant form of the feline IL-31 protein as a capture antigen. Cells producing antibodies with desired binding and inhibitory properties were chosen for sequence analysis of RNA transcripts representing the variable heavy (VH) and variable light (VL) IgG chains.
as §2
(§5) To determine the impact of mAbs 11E12 and 15H05 ability to bind these mutant forms of feline IL-31, an indirect ELISA was run using the mutants directly coated on to an immunoassay plate. […] The minor attenuation of mAb 15H05s binding to the 11E12 mutant is likely due to translational effects of the mutations from movement of the two front helices effecting the 15H05 binding site. The mutations designed to affect mAb 15H05s binding (mutant 15H05) show a complete loss of mAb 1505s ability to bind this IL-31 mutant by ELISA. Unlike the 11E12 mutant, the changes in the random coil recognized by mAb 15H05 (mutant 15H05) had no impact on mAb 11E12 binding further supporting the distinction between the two epitopes (FIG. 6C).

[6] = test system: feline IL-31; assay: Inhibition of feline IL-31 induced pSTAT3 signaling in canine DH-82 cells; type: cell-based; settings: feline IL-31, pSTAT3, canine DH82 cells (FIG. 3)
Experimental: (§6) To identify candidates with inhibitory activity, antibodies were assessed for their ability to affect IL-31-mediated STAT3 phosphorylation in either a canine or feline cell-based assay. STAT3 phosphorylation was determined in canine DH-82 (ATCC® CRL-10389™) or feline FCWF4 macrophage-like cells (ATCC CRL-2787). DH82 and FCWF4 cells were primed with canine interferon gamma (R&D Systems, Minneapolis, Minn.) at 10 ng/mL for 24 hours or feline interferon gamma (R&D Systems, Minneapolis, Minn.) at 125 ng/mL for 96 hours, respectively, to increase receptor expression. Both cell types were serum starved for 2 hours prior to IL-31 and mAb treatment. Using two independent methods, all candidate mAbs were evaluated for their ability to inhibit either 1 μg/mL canine or 0.2 μg/mL feline IL-31 induced STAT3 phosphorylation. […] To ensure complex formation, a one hour co-incubation of mAb and IL-31 cytokine prior to cell stimulation was completed. IL-31 cell stimulation was carried out for five minutes. STAT3 phosphorylation was measured using AlphaLISA SureFire ULTRA™ technology (Perkin Elmer, Waltham, Mass.). In the case where antibody concentration and purity are unknown, hybridoma supernatants were qualitatively measured for their ability to inhibit STAT3 phosphorylation following a 1 hour co-incubation with […] IL-31. The potency of individual monoclonal antibodies defined by their ability to inhibit IL-31 mediated STAT3 phosphorylation in these assays was considered the key selection criteria for further advancement of select antibodies. The term potency refers to the IC50 value calculated from these assays and is the concentration of the antibody where signaling induced by IL-31 is reduced to one half its maximal value.
Target sequence in this assay (as listed by the source): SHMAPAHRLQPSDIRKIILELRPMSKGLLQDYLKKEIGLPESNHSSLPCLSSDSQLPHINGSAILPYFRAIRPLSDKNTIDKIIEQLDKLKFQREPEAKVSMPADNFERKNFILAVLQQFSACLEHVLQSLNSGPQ

[7] = test system: wildtype feline IL-31; assay: Indirect ELISA, binding to wildtype feline IL-31
Sequence of wildtype feline IL-31 (as listed by the source): as the sequence (as listed by the source, stated change not applied) above, with A104D, A107I counted along it
Experimental: as §4, §2, §5

[8] = test system: feline IL-31; assay: Inhibition of feline IL-31 induced pSTAT3 signaling in feline FCWF4 macrophage-like cells; type: cell-based; settings: 0.2 μg/mL feline IL-31, pSTAT3, FCWF4 cells (FIG. 3)
Experimental: as §6

[9] = target: canine IL-31; assay: Affinity of anti-IL-31 antibodies by surface plasmon resonance (Biacore), canine IL-31 surface; type: binding; settings: IL-31 conjugated to the surface (FIG. 2)
How it was run: (§7)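 IL-31 amine-coupled (NHS/EDC) at 5 μg/mL directly onto the SPR chip, quenched with ethanolamine; candidate mAbs flowed over as analyte. KD from 1:1 model fits; values below 1×10^−11 M are under the instrument's lower quantitation limit.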

[10] = test system: wildtype feline IL-31; assay: Biacore binding, single test concentration of antibody, feline IL-31 surface
Experimental: as §1
For the indirect ELISA method, antibody binding to wildtype and feline IL-31 15H05 mutant proteins was assessed. […] In comparison, the 11E12 antibody bound to the wild-type feline IL-31 and its binding was not impacted by the mutations in the 15H05 epitope region as evidenced by the data in FIG. 4. To confirm binding, biacore analysis was performed using canine, feline, equine, human, feline 15H05 mutant, and feline 11E12 mutant IL-31 proteins as surfaces and a single test concentration of antibody. Similar to ELISA observations, all antibodies tested bound to wildtype feline IL-31. In agreement with the data described above in this section, mouse antibodies 11 E12 and 15H05 both bound to canine and feline IL-31 surfaces. […] From this group of nine fully canine antibodies, only ZIL1 and ZIL9 cross-reacted with equine IL-31. […]

[11] = test system: canine IL-31; assay: Biacore binding, single test concentration of antibody, canine IL-31 surface
Experimental: as §1, §2

[12] = test system: feline IL-31 11E12 mutant; assay: Indirect ELISA, binding to feline IL-31 11E12 mutant; settings: compared with wildtype
Sequence of feline IL-31 11E12 mutant (as listed by the source, change not shown): as the sequence (as listed by the source, stated change not applied) above
Excerpt: as §5

[13] = target: feline IL-31; assay: Affinity of anti-IL-31 antibodies by surface plasmon resonance (Biacore), feline IL-31 surface; type: binding; settings: IL-31 conjugated to the surface (FIG. 2)
How it was run: as §7
Target sequence in this assay (as listed by the source): as the sequence (as listed by the source, stated change not applied) above, with A104D, A107I counted along it

[14] = test system: feline 15H05 mutant IL-31; assay: Biacore binding, single test concentration of antibody, feline 15H05 mutant IL-31 surface
Experimental: as §1, §2

[15] = test system: equine IL-31; assay: Biacore binding, single test concentration of antibody, equine IL-31 surface
Sequence of equine IL-31 (as listed by the source): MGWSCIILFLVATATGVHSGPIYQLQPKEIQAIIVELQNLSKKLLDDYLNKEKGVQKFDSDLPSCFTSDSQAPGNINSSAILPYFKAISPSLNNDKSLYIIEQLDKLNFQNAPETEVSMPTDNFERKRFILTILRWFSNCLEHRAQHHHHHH
Experimental: as §1, §2

Molecule	binding of mouse anti equine IL-31 serum to mimotope ([1]; biotin peptide on streptavidin pins, 120 seconds association)	binding of control mouse serum to mimotope ([1]; serum of a mouse vaccinated with an unrelated protein)	binding to feline 11E12 mutant IL-31 (Biacore) [2]	competition binding on canine IL-31 [3]	competition binding on feline IL-31 [4]	binding to feline IL-31 15H05 mutant (ELISA) [5]	potency (IC50) against feline IL-31 in canine DH82 cells [6]	binding to wildtype feline IL-31 (ELISA) [7]	potency (IC50) against feline IL-31 in feline FCWF4 cells [8]	affinity (KD) to canine IL-31 [9]	binding to wildtype feline IL-31 (Biacore) [10]	binding to canine IL-31 (Biacore) [11]	binding to feline IL-31 11E12 mutant (ELISA) [12]	affinity (KD) to feline IL-31 [13]	binding to feline 15H05 mutant IL-31 (Biacore) [14]	binding to equine IL-31 (Biacore) [15]
A helix: biotin GSG equine IL-31 mimotope N-GPIYQLQPKEIQAIIVELQNLSKK-C (Biotin-GSGGPIYQLQPKEIQAIIVELQNLSKK)	recognized as relevant immunogens	some dilution dependent signal														
11E12: mouse-derived anti IL-31 antibody previously described in U.S. Pat. No. 8,790,651; for comparison (antibody, V domains shown) VH: QVQLQQSGAELVKPGASVKLSCKASGYTFKYYDINWVRQRPEQGLEWIGWIFPGDGGTKYNETFKGKATLTTDKSSSTAYMQLSRLTSEDSAVYFCARGGTSVIRDAMDYWGQGTSVTVSS VL: DIVLTQSPASLAVSLGQRATISCRASESVDNYGISFMHWYQQKPGQPPKLLIYRASNLESGIPARFSGSGSRTDFTLTINPVETDDVATYYCQQSNKDPLTFGAGTKLELK			did not bind	capable of binding to canine IL-31 in the presence of one another	no overlap in the epitope recognized	not impacted; also recorded: no impact	comparable	bound; also recorded: capable of binding	comparable	high affinity	bound	bound	highly attenuated	high affinity	bound	
ZIL1: fully canine anti IL-31 antibody, VH SEQ ID NO: 75, VL SEQ ID NO: 77 (antibody, listed as Canis familiaris, V domains shown) VH: EVQLVESGGDLVKPGGSLRLSCVASGFTFSSYGMSWVRQAPGKGLQWVAHINSGGSSTYYADAVKGRFTISRDNAKNTLYLQMNSLRAEDTAVYYCVEVYTTLAAFWTDNFDYWGQGTLVTVSS VL: QSVLTQPTSVSGSLGQRVTISCSGSTNNIGILAATWYQQLPGKAPKVLVYSDGNRPSGVPDRFSGSKSGNSATLTITGLQAEDEADYYCQSFDTTLDAYVFGSGTQLTVL			partially effected			binding was impacted; also recorded: decreased		capable of binding; also recorded: retained binding							decreased	cross-reacted
